# Positions count from the first letter of the chain named.
# B1: 5539 (antibody, V domains shown)
# VH: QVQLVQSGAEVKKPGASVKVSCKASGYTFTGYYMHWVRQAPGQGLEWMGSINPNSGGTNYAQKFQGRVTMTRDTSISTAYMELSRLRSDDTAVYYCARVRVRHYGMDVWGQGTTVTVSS
# VL: DIQMTQSPSSLSASVGDRVTITCRASQSISSYLNWYQQKPGKAPKLLIYAASSLQSGVPSRFSGSGSGTDFTLTISSLQPEDFATYYCQQPLSHPRTFGGGTKVEIK
# B2: 5894 (antibody, V domains shown)
# VH: QVQLVQSGAEVKKPGSSVKVSCKASGGTFSGYAISWVRQAPGQGLEWMGNIIPGFGTANYAQKFQGRVTITADESTSTAYMELSSLRSEDTAVYYCARSGGTKYGMLDVWGQGTMVTVSS
# VL: EIVMTQSPATLSVSPGERATLSCRASQSVGSNLAWYQQKPGQAPRLLIYGASTRATGIPARFSGSGSGTEFTLTISSLQSEDFAVYYCQQLYTWPPRTFGGGTKVEIK
# B3: 5644 (antibody, V domains shown)
# VH: QLQLQESGPGLVKPSETLSLTCTVSGGSISSSSYYWGWIRQPPGKGLEWIGSIYYSGSTYYNPSLKSRVTISVDTSKNQFSLKLSSVTAADTAVYYCARVGHGISYFDLWGRGTLVTVSS
# VL: B2 VL with M4L, V13L, G30S, N32Y, G50D, T53K, E70D, Q79E, S80P, L91V
# B4: 5905 (antibody, V domains shown)
# VH: B3 VH with S31W, G37S, Y55R, S58R
# VL: B2 VL with M4L, V13L, G30S, N32Y, G50D, T53K, E70D, Q79E, S80P, L91V
# B5: 5572 (antibody, V domains shown)
# VH: B2 VH with G31S, N50S, G54I
# VL: B2 VL
# B6: 5893 (antibody, V domains shown)
# VH: B2 VH with S30R
# VL: B2 VL
# B7: 5891 (antibody, V domains shown)
# VH: B2 VH with G31S, G54I, T57P
# VL: B2 VL
# B8: 5884 (antibody, V domains shown)
# VH: B2 VH with A33G
# VL: B2 VL with G30S, Y92I, T93L
# B9: 5887 (antibody, V domains shown)
# VH: B2 VH with S30R
# VL: B2 VL with G30S, Y92I, T93L
# B10: 5890 (antibody, V domains shown)
# VH: B2 VH with G31S
# VL: B2 VL
# B11: 5892 (antibody, V domains shown)
# VH: B2 VH with G31S, G54I, N59T
# VL: B2 VL
# B12: 5883 (antibody, V domains shown)
# VH: B2 VH with G31S, N50G, G54I, F55G, T57G
# VL: B2 VL with G30S, Y92I, T93L
# B13: 5896 (antibody, V domains shown)
# VH: B3 VH with Y55R
# VL: EIVLTQSPATLSLSPGERATLSCRASQSVSSYLAWYQQKPGQAPRLLIYDASNRATGIPARFSGSGSGTDFTLTISSLEPEDFAVYYCQQSLTWPPRTFGGGTKVEIK
# B14: 5888 (antibody, V domains shown)
# VH: B2 VH with S30W, G31K, Q65R
# VL: B2 VL with G30S, Y92I, T93L
# B15: 5903 (antibody, V domains shown)
# VH: B3 VH with S52M, Y60W
# VL: B13 VL with N53K, S91V, L92Y
# Target: human BACE1 ECD (human, UniProt P56817)
# Sequence (P56817 22-457): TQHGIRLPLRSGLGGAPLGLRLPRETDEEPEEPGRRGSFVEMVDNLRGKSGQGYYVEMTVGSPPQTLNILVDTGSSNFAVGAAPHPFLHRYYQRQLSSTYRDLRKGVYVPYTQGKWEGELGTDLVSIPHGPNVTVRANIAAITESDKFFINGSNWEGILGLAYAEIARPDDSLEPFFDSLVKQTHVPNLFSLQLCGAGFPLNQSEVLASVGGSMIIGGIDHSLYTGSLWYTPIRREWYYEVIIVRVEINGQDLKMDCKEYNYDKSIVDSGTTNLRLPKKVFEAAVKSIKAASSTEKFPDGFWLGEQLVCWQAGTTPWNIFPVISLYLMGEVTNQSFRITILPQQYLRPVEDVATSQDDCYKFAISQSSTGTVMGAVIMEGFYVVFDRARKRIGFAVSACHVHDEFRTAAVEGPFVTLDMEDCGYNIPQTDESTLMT
# Test: cell-based or functional assay
# Throughout, for % inhibition, FRET short substrate assay (negative = activation): test concentration or dose not given here.
row,"% inhibition, FRET short substrate assay (negative = activation) [%]",Binder
1,42,B1
2,69,B2
3,65,B3
4,65,B4
5,75,B5
6,72,B6
7,71,B7
8,-102,B8
9,-102,B9
10,66,B10
11,64,B11
12,-129,B12
13,-4,B13
14,-86,B14

# Target: murine BACE1 ECD
# Sequence (single chain, as listed by the source limits assumed): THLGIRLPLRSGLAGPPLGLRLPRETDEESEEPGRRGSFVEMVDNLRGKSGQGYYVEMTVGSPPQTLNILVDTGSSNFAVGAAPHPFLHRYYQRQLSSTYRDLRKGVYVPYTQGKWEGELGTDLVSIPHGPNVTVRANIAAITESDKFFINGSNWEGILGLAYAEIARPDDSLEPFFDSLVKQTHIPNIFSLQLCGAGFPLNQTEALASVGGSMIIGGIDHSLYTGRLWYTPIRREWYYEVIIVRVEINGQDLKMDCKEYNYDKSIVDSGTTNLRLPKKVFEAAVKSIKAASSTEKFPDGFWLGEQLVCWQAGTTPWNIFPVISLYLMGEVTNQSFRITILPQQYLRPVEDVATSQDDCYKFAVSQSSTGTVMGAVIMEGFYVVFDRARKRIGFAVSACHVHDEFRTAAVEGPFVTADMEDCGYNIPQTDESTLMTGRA
# Test: cell-based or functional assay
row,"% inhibition, FRET short substrate assay (negative = activation) [%]",Binder
1,23,B1
2,69,B2
3,63,B3
4,72,B4
5,77,B5
6,69,B6
7,70,B7
8,-243,B8
9,-230,B9
10,69,B10
11,64,B11
12,-275,B12
13,-3,B13
14,-183,B14

# Target: T1, BACE1 ECD (as used in the enzyme activity assay) (UniProt P56817 22-457, limits assumed)
# T1 sequence (P56817 22-457 limits assumed): as the sequence (P56817 22-457) above
# Test: cell-based or functional assay
"EC50, HTRF long substrate assay [nM]","EC50, FRET short substrate assay [nM]",Binder
0.694,–,B1
8.75,8.47,B3
1.28,15.9,B5
7.76,0.478,B8
5.5,0.482,B9
5.93,0.607,B12

# Target: T1, BACE1 ECD (as used in the enzyme …)
# Test: cell-based or functional assay
# Remark: another data set of the same source
"EC50, FRET short substrate assay [nM]","EC50, HTRF long substrate assay [nM]",Binder
8.58,1.79,B2
1.33,3.91,B4
3.12,1.38,B15
8.84,3.59,B6
12.4,3.03,B7
32.4,4.06,B10
16.4,1.19,B11
3.35,3.46,B13
0.602,2.5,B14

# Target: T2, BACE1 endogenous to primary cortical neurons from E16.5 CD1 mice (mouse, UniProt P56818 46-501)
# T2 sequence (P56818 46-501): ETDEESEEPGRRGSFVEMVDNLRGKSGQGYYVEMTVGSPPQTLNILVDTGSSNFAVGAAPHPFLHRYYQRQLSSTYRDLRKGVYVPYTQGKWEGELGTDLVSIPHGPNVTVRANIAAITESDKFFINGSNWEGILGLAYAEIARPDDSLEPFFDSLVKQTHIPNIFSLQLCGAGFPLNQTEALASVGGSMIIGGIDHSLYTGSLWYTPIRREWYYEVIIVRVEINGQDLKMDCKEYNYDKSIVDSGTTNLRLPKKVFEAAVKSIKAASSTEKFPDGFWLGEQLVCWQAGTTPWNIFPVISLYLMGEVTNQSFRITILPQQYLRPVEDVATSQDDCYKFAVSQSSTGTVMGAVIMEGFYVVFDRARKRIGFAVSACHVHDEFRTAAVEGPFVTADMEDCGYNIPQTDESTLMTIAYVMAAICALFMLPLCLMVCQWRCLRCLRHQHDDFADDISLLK
# Test: cell-based or functional assay
"max % inhibition, Abeta x-40 in mouse cortical neurons [%]","IC50, Abeta x-40 in mouse cortical neurons (row 5894*, second run) [nM]","IC50, Abeta x-40 in mouse cortical neurons (row 5884*, second run) [nM]","IC50, Abeta x-40 in mouse cortical neurons (row 5887*, second run) [nM]","IC50, Abeta x-40 in mouse cortical neurons (row 5896*, second run) [nM]",Binder
45,–,–,–,–,B1
78,5.43,–,–,–,B2
72,–,–,–,–,B3
73,–,–,–,–,B5
73,–,–,–,–,B6
78,–,–,–,–,B7
83,–,3.51,–,–,B8
75,–,–,2.53,–,B9
77,–,–,–,–,B10
73,–,–,–,–,B11
82,–,–,–,–,B12
65,–,–,–,5.72,B13
82,–,–,–,–,B14

# Target: T2, BACE1 endogenous to primary cortical …
# Test: cell-based or functional assay
# Remark: another data set of the same source
"IC50, Abeta x-40 in mouse cortical neurons (row 5905*, second run) [nM]","max % inhibition, Abeta x-40 in mouse cortical neurons [%]","IC50, Abeta x-40 in mouse cortical neurons (row 5903*, second run) [nM]",Binder
0.83,65,–,B4
–,72,7.27,B15

# — patent publication US20210206877A1 (Genentech, published 2021)
